# Results from patent US20220133889A1.
# Columns and labels:
# [1] = biological target: huTIM-3/his (human) (UniProt Q8TDQ0); test: Biacore sequential injection; value belongs to the 2nd antibody huIgG1; competitor (1st antibody) ABTIM3-hum11
# [2] = biological target: huTIM-3/his (human) (UniProt Q8TDQ0); test: Biacore sequential injection; value belongs to the 2nd antibody huIgG1; competitor (1st antibody) huIgG1
# [3] = biological target: huTIM-3/his (human) (UniProt Q8TDQ0); test: Biacore, hTIM-3/his captured by anti-His antibody on a CM5 chip; first injection
# [4] = biological target: huTIM-3/his (human) (UniProt Q8TDQ0); test: Biacore sequential injection; value belongs to the 2nd antibody huIgG1; competitor (1st antibody) ABTIM3-hum21
# [5] = biological target: huTIM-3/his (human) (UniProt Q8TDQ0); test: Biacore sequential injection; value belongs to the 2nd antibody huIgG1; competitor (1st antibody) ABTIM3-hum03
substance,measurement,setting,value
huIgG1 (antibody),change in RU (2nd antibody injection),[1],3.8 RU
same,change in RU (2nd antibody injection),[2],3.6 RU
same,change in RU (1st antibody injection),[3],0.27 RU
same,change in RU (2nd antibody injection),[4],4.5 RU
same,change in RU (2nd antibody injection),[5],4.5 RU
